The text below walks through data of patent US20260242478A1 (published 2026).

For experiment [1], the target named is T1, PSMA Fab (biotinylated (site not stated)).
T1 construct: Biotinylated PSMA Fab captured on neutravidin plates in the phage ELISA; also called Anti-PSMA Fab; 006 PSMA Fab
Kind of experiment: phage ELISA, biotinylated PSMA Fab on neutravidin plate, anti-M13-HRP detection, blocking buffer alone.

The target in experiment [2] is T1, PSMA Fab. The experiment in a line: phage ELISA, biotinylated PSMA Fab on neutravidin plate, anti-M13-HRP detection, competitor PSMA antigen pre-incubated.
Protocol: (§1) Clonal phage were harvested as crude supernatants and screened via standard ELISAs. […] Prior to the addition of clonal phage. wells were incubated with blocking buffer and PSMA antigen or blocking buffer alone. Without washing or aspirating, clonal phage supernatants were then added to the wells and incubated for a short time. Wells were then washed followed by detection of bound phage using a horse radish conjugated anti-M13 antibody.
Experiment [3] deals with T2, PSMA Fab (006 PSMA Fab).
T2 construct: also called Anti-PSMA Fab; anti-PSMA Fab
Kind of experiment: clonal phage ELISA on biotinylated PSMA Fab captured on neutravidin plates, anti-M13 HRP detection.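 Also: crude clonal phage supernatants tested, before phage were added, wells were pretreated with PSMA antigen in blocking buffer or with blocking buffer only.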
Protocol: as §1

Experiment [4] addresses T2, PSMA Fab (006 PSMA Fab). The experiment in a line: clonal phage ELISA on captured PSMA Fab, wells pre-incubated with PSMA antigen as competitor, anti-M13 HRP detection.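 Also: crude clonal phage supernatants added, with no intervening wash, to wells preincubated with PSMA antigen in blocking buffer, incubated briefly, then washed before detecting bound phage.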
Protocol: as §1
For experiment [5], the target named is T3, PSMA Fab.
T3 construct: Biotinylated PSMA Fab captured on neutravidin coated plates in the phage ELISA; also called Anti-PSMA Fab; 006 PSMA Fab
Kind of experiment: clonal phage ELISA on biotinylated PSMA Fab captured on neutravidin plates, anti-M13 HRP detection.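 Also: crude clonal phage supernatants tested, before phage were added, wells were pretreated with PSMA antigen in blocking buffer or with blocking buffer only.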
Protocol: as §1

Experiment [6] concerns the target T3, PSMA Fab. Kind of experiment: clonal phage ELISA on captured PSMA Fab pre-incubated with PSMA antigen as competitor, anti-M13 HRP detection.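 Also: crude clonal phage supernatants tested by ELISA, wells first treated with blocking buffer plus PSMA antigen, bound phage read out via HRP-linked anti-M13 antibody.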
Protocol: as §1

Where no end group is shown, it is not given here.

Take DYKWCTPPWMCLVD [Phage-2662]: the “Phage binding ELISA signal, Anti-PSMA Fab” value in experiment [1] is 0.904. In experiment [2], the “Phage binding ELISA signal, Anti-PSMA Fab with PSMA antigen” value came out at 0.083.

For the molecule MSKWCVPTWMCQWQ [Phage-2741], the “Phage binding ELISA signal, Anti-PSMA Fab” value in experiment [3] turned out to be 0.711. Further, the “Phage binding ELISA signal, Anti-PSMA Fab with PSMA antigen” value in experiment [4] came to 0.0979.

Consider GPKWCTPTWMCEFS [Phage-2776], for which the “Phage binding ELISA signal, Anti-PSMA Fab” value in experiment [5] came to 0.638. Besides, the “phage binding ELISA signal (Anti-PSMA Fab, PSMA antigen present)” value in experiment [6] was found to be 0.0754.

For GNLWCSPPWMCFGM [Phage-2749], the “Phage binding ELISA signal, Anti-PSMA Fab” value in experiment [3] came to 0.696. Besides, the “Phage binding ELISA signal, Anti-PSMA Fab with PSMA antigen” value in experiment [4] was found to be 0.0732.

For the molecule EDIWCIPSWMCGVI [Phage-2751], in experiment [3], the “Phage binding ELISA signal, Anti-PSMA Fab” value is 0.694. In addition, the “Phage binding ELISA signal, Anti-PSMA Fab with PSMA antigen” value in experiment [4] was 0.0663.

APKWCTPSWMCQQV [Phage-2661]: the “Phage binding ELISA signal, Anti-PSMA Fab” value in experiment [1] was found to be 0.908. Moreover, in experiment [2], the “Phage binding ELISA signal, Anti-PSMA Fab with PSMA antigen” value was determined as 0.121.

In the case of IMKWCTPTWMCEMG [Phage-2743], the “Phage binding ELISA signal, Anti-PSMA Fab” value in experiment [3] was found to be 0.708. Besides, the “Phage binding ELISA signal, Anti-PSMA Fab with PSMA antigen” value in experiment [4] came to 0.122.

As to GEHWCTPAWMCSVM [Phage-2659], the “Phage binding ELISA signal, Anti-PSMA Fab” value in experiment [1] is 0.919. The “Phage binding ELISA signal, Anti-PSMA Fab with PSMA antigen” value in experiment [2] was 0.68.

B1: Phage-2773 (peptide)
peptide: VPKWCTPSWMCASN
modifications: cysteine pairing not given here; also: fused to pIII, displayed on bacteriophage
As to B1, the “Phage binding ELISA signal, Anti-PSMA Fab” value in experiment [5] was determined as 0.643. The “phage binding ELISA signal (Anti-PSMA Fab, PSMA antigen present)” value in experiment [6] came to 0.0608.

Turning to DVKWCKPRWMCNRD [Phage-2750], the “Phage binding ELISA signal, Anti-PSMA Fab” value in experiment [3] came out at 0.695. Further, in experiment [4], the “Phage binding ELISA signal, Anti-PSMA Fab with PSMA antigen” value was 0.0701.

On to DPKWCTPSWMCDWR [Phage-2755], for which the “Phage binding ELISA signal, Anti-PSMA Fab” value in experiment [3] was 0.69. Besides, the “Phage binding ELISA signal, Anti-PSMA Fab with PSMA antigen” value in experiment [4] came out at 0.0821.

Regarding DWKWCIPAWMCSQD [Phage-2748], in experiment [3], the “Phage binding ELISA signal, Anti-PSMA Fab” value came out at 0.697. For the same molecule, the “Phage binding ELISA signal, Anti-PSMA Fab with PSMA antigen” value in experiment [4] was found to be 0.0645.

With EFKWCIPMWMCQAN [Phage-2665], the “Phage binding ELISA signal, Anti-PSMA Fab” value in experiment [1] was 0.896. Further, in experiment [2], the “Phage binding ELISA signal, Anti-PSMA Fab with PSMA antigen” value was determined as 0.0753.

In the case of ETSWCRPTWMCEGM [Phage-2752], the “Phage binding ELISA signal, Anti-PSMA Fab” value in experiment [3] stood at 0.693. The “Phage binding ELISA signal, Anti-PSMA Fab with PSMA antigen” value in experiment [4] worked out at 0.0587.

B2: Phage-2771 (peptide)
peptide: QMHWCMPPWMCEGI
modifications: cysteine pairing not given here; also: fused to pIII, displayed on bacteriophage
Consider B2, for which the “Phage binding ELISA signal, Anti-PSMA Fab” value in experiment [5] was found to be 0.65. In addition, the “phage binding ELISA signal (Anti-PSMA Fab, PSMA antigen present)” value in experiment [6] worked out at 0.0705.

On to MPKWCTPQWMCEMY [Phage-2658], for which the “Phage binding ELISA signal, Anti-PSMA Fab” value in experiment [1] came out at 0.92. In experiment [2], the “Phage binding ELISA signal, Anti-PSMA Fab with PSMA antigen” value amounted to 0.0641.

On to APHLCIPKWMCNPS [Phage-2664], for which, in experiment [1], the “Phage binding ELISA signal, Anti-PSMA Fab” value turned out to be 0.899. For the same molecule, in experiment [2], the “Phage binding ELISA signal, Anti-PSMA Fab with PSMA antigen” value came out at 0.105.

TNKLCIPTWMCSGF [Phage-2745]: the “Phage binding ELISA signal, Anti-PSMA Fab” value in experiment [3] was 0.703. Also, the “Phage binding ELISA signal, Anti-PSMA Fab with PSMA antigen” value in experiment [4] turned out to be 0.0715.

Consider DIKRCTPAWMCSWM [Phage-2742], for which the “Phage binding ELISA signal, Anti-PSMA Fab” value in experiment [3] worked out at 0.709. For the same molecule, the “Phage binding ELISA signal, Anti-PSMA Fab with PSMA antigen” value in experiment [4] is 0.0807.

Take GNSWCTPQWMCTGF [Phage-2740]: the “Phage binding ELISA signal, Anti-PSMA Fab” value in experiment [3] came out at 0.712. Moreover, in experiment [4], the “Phage binding ELISA signal, Anti-PSMA Fab with PSMA antigen” value turned out to be 0.0596.

For the molecule VVKWCTPAWMCSLN [Phage-2663], in experiment [1], the “Phage binding ELISA signal, Anti-PSMA Fab” value is 0.902. The “Phage binding ELISA signal, Anti-PSMA Fab with PSMA antigen” value in experiment [2] amounted to 0.0846.

Take ANHWCIPSWMCTEV [Phage-2753]: in experiment [3], the “Phage binding ELISA signal, Anti-PSMA Fab” value is 0.692. In experiment [4], the “Phage binding ELISA signal, Anti-PSMA Fab with PSMA antigen” value worked out at 0.162.

As for QDKWCTPTWMCEGL [Phage-2778], in experiment [5], the “Phage binding ELISA signal, Anti-PSMA Fab” value came out at 0.631. In addition, the “phage binding ELISA signal (Anti-PSMA Fab, PSMA antigen present)” value in experiment [6] is 0.0777.

As to LQKWCIPAWMCSST [Phage-2657], in experiment [1], the “Phage binding ELISA signal, Anti-PSMA Fab” value was determined as 0.92. Besides, the “Phage binding ELISA signal, Anti-PSMA Fab with PSMA antigen” value in experiment [2] stood at 0.0717.

For GSNWCKPAWMCSVA [Phage-2777], the “Phage binding ELISA signal, Anti-PSMA Fab” value in experiment [5] is 0.634. Also, in experiment [6], the “phage binding ELISA signal (Anti-PSMA Fab, PSMA antigen present)” value came out at 0.0623.

Regarding HEKWCTPPWMCELI [Phage-2654], the “Phage binding ELISA signal, Anti-PSMA Fab” value in experiment [1] amounted to 0.929. The “Phage binding ELISA signal, Anti-PSMA Fab with PSMA antigen” value in experiment [2] came out at 0.0717.

For the molecule DLKWCVPTWMCNWS [Phage-2775], the “Phage binding ELISA signal, Anti-PSMA Fab” value in experiment [5] was determined as 0.639. Also, the “phage binding ELISA signal (Anti-PSMA Fab, PSMA antigen present)” value in experiment [6] was determined as 0.0692.

In the case of DQNWCIPHWMCVGI [Phage-2779], in experiment [5], the “Phage binding ELISA signal, Anti-PSMA Fab” value worked out at 0.625. Besides, the “phage binding ELISA signal (Anti-PSMA Fab, PSMA antigen present)” value in experiment [6] came to 0.0883.

In the case of SEKWCTPAWMCGDM [Phage-2747], the “Phage binding ELISA signal, Anti-PSMA Fab” value in experiment [3] was found to be 0.7. Besides, in experiment [4], the “Phage binding ELISA signal, Anti-PSMA Fab with PSMA antigen” value was 0.0842.

In the case of APQWCIPPWMCHDQ [Phage-2754], in experiment [3], the “Phage binding ELISA signal, Anti-PSMA Fab” value came to 0.691. Besides, the “Phage binding ELISA signal, Anti-PSMA Fab with PSMA antigen” value in experiment [4] was 0.0708.

Turning to SMKMCTPPWMCEFA [Phage-2774], the “Phage binding ELISA signal, Anti-PSMA Fab” value in experiment [5] turned out to be 0.641. For the same molecule, the “phage binding ELISA signal (Anti-PSMA Fab, PSMA antigen present)” value in experiment [6] was 0.0631.

For the molecule AIKWCIPAWMCAQA (cysteine pairing not given here; also: displayed on phage as pIII fusion) [Phage-2656], in experiment [1], the “Phage binding ELISA signal, Anti-PSMA Fab” value amounted to 0.92. Moreover, in experiment [2], the “Phage binding ELISA signal, Anti-PSMA Fab with PSMA antigen” value worked out at 0.0786.

Consider FDKWCTPPWMCKVF [Phage-2744], for which the “Phage binding ELISA signal, Anti-PSMA Fab” value in experiment [3] turned out to be 0.708. Also, the “Phage binding ELISA signal, Anti-PSMA Fab with PSMA antigen” value in experiment [4] was found to be 0.143.

On to VQAWCVPQWMCNQF [Phage-2772], for which the “Phage binding ELISA signal, Anti-PSMA Fab” value in experiment [5] turned out to be 0.646. The “phage binding ELISA signal (Anti-PSMA Fab, PSMA antigen present)” value in experiment [6] came out at 0.0631.

FVNMCKPAWMCSLL [Phage-2655]: the “Phage binding ELISA signal, Anti-PSMA Fab” value in experiment [1] came out at 0.923. Besides, the “Phage binding ELISA signal, Anti-PSMA Fab with PSMA antigen” value in experiment [2] amounted to 0.0949.

VVKMCKPLWMCGIS [Phage-2746]: in experiment [3], the “Phage binding ELISA signal, Anti-PSMA Fab” value stood at 0.701. For the same molecule, the “Phage binding ELISA signal, Anti-PSMA Fab with PSMA antigen” value in experiment [4] stood at 0.0564.

On to ETKWCIPVWMCEHK [Phage-2653], for which, in experiment [1], the “Phage binding ELISA signal, Anti-PSMA Fab” value came out at 0.934. Further, in experiment [2], the “Phage binding ELISA signal, Anti-PSMA Fab with PSMA antigen” value is 0.122.

Turning to SNHLCTPPWMCYGF [Phage-2652], in experiment [1], the “Phage binding ELISA signal, Anti-PSMA Fab” value is 0.939. In addition, the “Phage binding ELISA signal, Anti-PSMA Fab with PSMA antigen” value in experiment [2] was found to be 0.0665.

As for VEKWCRPSWMCQQV [Phage-2660], the “Phage binding ELISA signal, Anti-PSMA Fab” value in experiment [1] came out at 0.914. Also, the “Phage binding ELISA signal, Anti-PSMA Fab with PSMA antigen” value in experiment [2] turned out to be 0.09.
